Data from the nanobody polyreactivity screen of Harvey et al. (2022).

Assay: yeast display, Sf9 membrane polyspecificity reagent, FACS + sequencing; frameworks hold sequencing errors
Procedure, shortened: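 Sorting gates, low and high (top ~1%), were placed on anti-HA fluorescence to track expression and on streptavidin fluorescence to track reagent binding. A clone's polyreactivity label is taken from the gate it came out of. The reagent was 10% biotinylated, detergent-solubilized Sf9 membrane, applied for 1 hour at 4 °C to galactose-induced yeast display cells.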

Row | Sequence | polyreactivity (PSR sort gate)
1 | QVQLQESGGGLVQAGGSLRLTCAASRNISGSADLGWYHPAPGKEREFVASITSGGTTYYADSVKGRVTISRDNAKNTVYLQMNSLKPEDTAVYYCAVGDPADAEFGYWGQGSQVTVSS | low polyreactivity
2 | QVQLQESGGGLVQAGGSLRMRCAASRNISGSSDLGWYHQAPGKEREFVASITSGGTTYYADSVKGRFTISRDNAKNTVYLQMNSLKPEDTAVYYCAVGDPADAEFGYWGQGTQVTVSS | low polyreactivity
3 | QVQLQESGGGLVQAGGSLRMSCAASGNIFDADIMGWYRQAPGKERELVASITDGRRTNYADSVKGRYTISRDSEKNTVYMQMNSLIPVDTAVYYCADIAYPVVPTYFDYDSDYFHWGQGTQVTVSS | high polyreactivity
4 | QVQLQESGGGLVQAGGSLRPSCAASGNIFVPFKMGWYRLAPGKEREHVASINRGSTTNYADSVKGRFTISRDNAKNTVYLQMISLKPEDTAVYYCAAIAYPDIPTYLDYDSDYFYWDQGTQVTVSS | high polyreactivity
5 | QVQLQESGGGLVQAGGSLRPSCAASGSISDGVPKGWYRQAPGEERELVATTVLGATTNYADSVKGRFTISRGNAKNTVYLQMNSLKPEETAVYYCAAPLRYDKGFSYWGQGTQVTVSS | low polyreactivity
6 | QVQLQESGGGLVQAGGSLRQSCAASGSNSPWSYMGRSRQAPGKEREFVASINAGTNTYYADSAKGRITISRDNATNTVYLQMNSLKPEDTAAYYCAARYWNDYYFPYWGQGTQVTVSS | low polyreactivity
7 | QVQLQESGGGLVQAGGSLRQSYAASGYIFPSLAMGWYRQAPGKEREFVAAIGRGSTNNYADSVKGRFTISRDNAKNTAYQQMNSLNPEDTAVYYCAAAASPLTRHLYWGQGTQVTVSS | low polyreactivity
8 | QVQLQESGGGLVQAGGSQRLSCAASGYIFYFQYMGWYRQAPGKEREFVAAISDGANTNYADSVKGRFTISRDNAKNTEYLQMNSLKPEDTAVYFCAVYADENYYFIYWGQGTQVTVSS | low polyreactivity
9 | QVQLQESGGGLVQAGGSQRLSCASSGYIFYFQYMGWYRQAPGKEREFVAAISDGANTNYADSVKGRFTISRDNAKNTEYLQMNSLKPEDTAVYYCNADQYYWYEYDYWGQGTQVTVSS | low polyreactivity
10 | QVQLQESGGGLVQAGGSRRLSCAASGSISNLIAKCWYRQAQGKEREFVAAIGPGANTNYADSVKGRFTISRDNAKNPVYLQMNSRTPEDTAVYYCAVDYYGEAVYHYWGQGTQVTVSS | high polyreactivity
11 | QVQLQESGGGLVQAGGTLRLSCAASGSFSADEDMGWYRQAQGKEREFVAGISVGGNTNYADSVKGRFTISRENAKNTVYLQMNILKPEDTAVYYCNARLLYLGSGFYYWGQGTQVTVSS | high polyreactivity
12 | QVQLQESGGGLVQARGSLRLSCAASGTILYSLGMGWYRQAPGKRREFVASITWGTTTNYAESVKGRFTISRDNAKNTVYPQMNSLKPEDTAVYYCAAPPFGDSSYHYWRQGTQVTVSS | low polyreactivity
13 | QVQLQESGGGLVQARGSLRLSCAASGTISQEDCMGWYRQAPGKVREFVAAIGLGSNTNYADRLKGRFTISRDNAKNTVYLQMNSLKTEDTAVYYCAVSVWQYSDHVYRGQGTQVTVSS | low polyreactivity
14 | QVQLQESGGGLVQASGSLRLSCAASGNIFPDYFMGWYRLAPGKEREFVANITGGSTTNYADSVKGRFTISRDNAKNTLYLQMNSLKPEDTAVYYCAVNFGTVVLYLYWGQGTQVTVSI | high polyreactivity
15 | QVQLQESGGGLVQEGGSLRLSCAASGNISPPADMGWYRPAPGKERELVASIGTGGTTNYADSVKGRFTISRDNAKNTVYLQMNSLKPEDTAVYYCNVRYRSAGSRYGYWGQGTQVTVSS | low polyreactivity
16 | QVQLQESGGGLVQEGGSLRLSCAASGNISPPADMGWYRQAPGKERELVASIGTGGTTNYADSVKGRFTISRDNAKNTVYLQMNSLKPDDTAVYYCAAVRYEYNPYDYWGQGTQVTVRS | low polyreactivity
17 | QVQLQESGGGLVQEGGSLRLSCAASGSIFKVVHMGLYRQAPAKEREFVATIGEGGNTYYADSVKGRFTISRDNAKNTVYLQMNSLKPVDTAVYFYAVVLGTSYRYTYWGQGTQVTVSS | low polyreactivity
18 | QVQLQESGGGLVQEGGSLRLSCSASGNISPPADMGWSRQAPGKERELVASIGTGGTTNYADSVKGRFTISRDNAKNTVYLQMNSLKPDDTAVYYCAAGRYEYNPYDYWGQGTQVTVSS | low polyreactivity
19 | QVQLQESGGGLVQGGGSLRLSCAASGSNYRSWYMGWYRQAPGKERELVASITEGATTNYAYSVKAALPLAAITRNTVYLQMDSMKPEDTAVYYRAASFGSTYDLVYWGQGTQVTVSS | high polyreactivity
20 | QVQLQESGGGLVQVGGSQRLSCAASGNIFYNYAMGWYRHAQGKEREFDATINHGTSINYADSVKGRFTISRDNAKNTVYLQMNSLKPEDTAVYYCAARVVRYGYKYYYWGQGTQVTVSS | low polyreactivity
21 | QVQLQESGGGLVRAGGSLRLSCAASGYISTSIAIGWYRQAPGKERELVASFGAGAITNYADSVKGFTISRDNGKKTVYLQMNSLKPVDTALYYCAVYHGDRGYYSYWGQGTQVTVSS | low polyreactivity
22 | QVQLQESGGGLVRAGGSLRLSCAASGYISTSIAMGWYRQAPGKERELVASFGRGAITNYADSVKGFTISRDNGKNSVYLQMNSLKPEDTAVYYCAVYHGDRGYYSYWGQGTQVNVSS | low polyreactivity

Row | Sequence | polyreactivity (PSR sort gate)
23 | QVQLQESGGGLVRAGGSLRMSCAASGNIFDADIMGWYRQAPGKERELVASITDGRRTNYADSVKGRYTISRDSEKNTVYLQMNSLKPEDTAVYYCAAIAYPVVPTYFDYDSDYFHWGQGTQVTVRS | high polyreactivity
24 | QVQLQESGGGLVRAGGSLSLSCAASGTIFGQFYMGRYRQAPGKEREFVATINYGSSTNYADSVKGRYTISRDNAKNTVYLQMNSLKPEDTAVYYCNTDFFYYGYNFPYFDYDYWGQGSQVTVSS | low polyreactivity
25 | QVQLQESGGGMVQAGGSLRLSCAASGYISWADYMGWYRQAPGKERELVAGIGYGSTTYYADSVKGRFTISRDNAKNTAYLQMNSLKPQYTAVYYCAVGWYRDTAYKYWGQGTQVTVSS | low polyreactivity
26 | QVQLQESGGGMVQAGGSLRLSCAASGYISWADYMVWYRQAPGKERELVAGIGYGSTTYYADSVKGRFTISRDNAKNTAYLQMNSLKPEDTAVYYCAVGWYRDTAYKYWGQGTQVTVSS | low polyreactivity
27 | QVQLQESGGGMVQAGVSLRLSCAASGTISNAPHMGWYRQAPAKERELVAGITIGGTTYYADSVKGRFTISRDNAKNTVYLQMNSLSPGVTAVYDCAAHSEQYTPFYYWGQGTQVTVSS | low polyreactivity
28 | QVQLQESGGGPVLAGGSLRLSCAASGTIFVRLDMGWYRQAPGKEREFVATIGSGSSTYYADSVKGSFTISRDNVKNTVYLQMNSLKPEDTAVYYCAVSAAEQSRHYYWDQGTQVTVSS | low polyreactivity
29 | QVQLQESGGGQVHAGGSLRLSCAASGTIFLYAFMGWYRQPPAKERELVAAIDVGTTTNYADSVKGRFTISRDNEKNTVYLQMNSLKPEDTAVYYCAANLGYLDDLGYWGQGTQVTVSS | low polyreactivity
30 | QVQLQESGGGQVQAGGSLRLSCAASGYMSTHYFMGWYRQSPGKDREFVAGISNGSITNYADSVKGRFTISRDNARNTVYLQMNSLKPEYTAVYYGAAFEWTYVRFGYWGQGTQVTVSG | high polyreactivity
31 | QVQLQESGGLVQAGGSLRLSCAASGSISGRNVMGWYRQAPGQEREFVASITDGSSTNYADSVKGRFTISRDNAKNTVYLQMNSLKPKDTAVYYCAAYAQRAKSFGYWGRGTQVTVSS | low polyreactivity
32 | QVQLQESGGLVQAGVSLRLSCAASGSISGRNVMGWYLQAPVKQREFVASITDGSSSNYADSVKGRFTISRDNAKNTVYLQMNSLKPTDTAVYYCAAYGLRPKSFGNWGGGTQVTVSS | low polyreactivity
33 | QVQLQESGGRLVQAGDSQRLSCASSGNIFRFTDMGWYRQAPGKERELVAAINAGSTTYYADSVKGRFTISRDNAKNTVYLQMNSLKPEDTAFYHCNDPPVYSSTRYGYWGQGTQVTVAS | high polyreactivity
34 | QVQLQESGGVLVQAGGSLRLSCAASGYISWYSEMGWYRKAPCKEREFVATNTCGTTTNYAVSVKGRFTISRDNAKNTVYLQKNSLKPEDTAVYYCAVHDARHYEFDYWGQGTQVTVSS | high polyreactivity
35 | QVQLQESGRGLVQAGGSLRLSCAASGTISQEDWMGWYRQAPGKEREFVAAIGLGSNTNYADSLKGRFTISRDNAKNTVYLQMNSLKPEDTAVYYCAVSVWQYSDHVYRGQGTQVTVSS | low polyreactivity
36 | QVQLQESGSGLVQARGSLRLSCAASGAIFPAYLMGWYRHAPGKERELVAGISYGSITYCADSVKGRFNISRDNAKNTVYLQRNSLKPEDTAVYYCAVWRPGGDEYYYWGQGTQVTVSS | low polyreactivity
37 | QVQLQESNGGLVQAGGCLRLSCAASGNIFDADIMGWFRKAPGIERELVASITDGGSTNYADSVKGRFTINRDNALNTVYLQMYSLKPEDTAVYYCAVSYKGWYQLGYWGQGTQVTVSS | high polyreactivity
38 | QVQLQESVGGLVQAGGILRLSCAACGNIFPSAVMGWYRQALGKEREFVATINSGSNTYYADSVKGRFTISRDNATNTVYLQMNSLKLEDTAVYYCAAYFKLPAWHTYWGQGTQVTVSS | low polyreactivity
39 | QVQLQESVGGLVQAGGSLRLSCAASGTIFWGDDMGWYRQAPGKERELVASINDGSITYYADSVKGRFTISRDNAKNTVYLQMNSLKPEDTAVYYCAVRIAVVKSYLIYNYWGQGTQVTVSS | high polyreactivity
40 | QVQLQETGGGLVQAGGILGCAASGNISTRSEMGWYRQATGKEREFVATINSGGITNYADSVKGRFTISRDNAKNTVYLRMNSLKPEDTAVYYRAVYGYFSDPYDYWGQGTQVTVSS | low polyreactivity
41 | QVQLQGSGGGLVQAGGSLRLSCAASGNIFDADIMGWYRQAPGKESELVASITDGGSTNYADSVKGRFTISRDNAKNTVYLQMNSLKQEDTAVYYCAAIAYPDIPTYFDYDSACFYWSQGTQVTVSS | high polyreactivity
42 | QVQLQGSGGGLVQAGGSLRLSCAASGNIFDADIMGWYRQAPGKESELVASITDGGSTNYADSVKGRFTISRDNAKNTVYLQMNSLKQVDTAVYYCAAIAYPDIPTYFDYDSDCFYWSQGTQVTVSS | high polyreactivity
43 | QVQLQGSGGGLVQAGVSLRLSCAASGYIFQNVPMGWNRHAPGKERELVAGIDNATSTNYADSVNGRFTISLDNAKNTVYLQMNSLKPEDTAVYYCAAAGQADNTLGYWGQGTQVTVSS | low polyreactivity
